Experimental data from patent publication US20200225234A1 (ONCOTAG DIAGNOSTICS, published 2020).

Tests used:
[1] = molecular target: T1, His-CRS (UniProt P49589 1-748); test: ELISA, coated His-CRS, absorbance at 450 nm
T1 construct: not shown: His tag
T1 sequence (looked up): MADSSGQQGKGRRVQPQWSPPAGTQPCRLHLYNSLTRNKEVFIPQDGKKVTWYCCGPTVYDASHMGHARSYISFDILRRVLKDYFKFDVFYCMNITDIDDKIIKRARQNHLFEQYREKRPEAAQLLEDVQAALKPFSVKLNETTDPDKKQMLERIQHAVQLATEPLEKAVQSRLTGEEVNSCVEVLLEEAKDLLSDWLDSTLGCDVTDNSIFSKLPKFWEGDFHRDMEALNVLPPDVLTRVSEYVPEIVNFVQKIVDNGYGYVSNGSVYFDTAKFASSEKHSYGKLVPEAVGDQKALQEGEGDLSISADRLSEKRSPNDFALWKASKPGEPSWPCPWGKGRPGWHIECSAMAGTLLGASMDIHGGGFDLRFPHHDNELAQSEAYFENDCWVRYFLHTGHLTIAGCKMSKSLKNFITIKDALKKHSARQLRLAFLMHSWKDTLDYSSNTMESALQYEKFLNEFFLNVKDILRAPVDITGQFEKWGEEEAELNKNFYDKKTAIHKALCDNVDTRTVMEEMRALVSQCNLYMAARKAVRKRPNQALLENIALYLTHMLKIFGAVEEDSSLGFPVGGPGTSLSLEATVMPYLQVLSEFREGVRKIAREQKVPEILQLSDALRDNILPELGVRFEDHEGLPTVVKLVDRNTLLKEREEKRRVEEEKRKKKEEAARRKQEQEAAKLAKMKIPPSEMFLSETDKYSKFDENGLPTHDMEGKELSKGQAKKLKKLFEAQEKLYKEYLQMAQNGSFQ
Experimental: (§1) On a 96-well plate (Corning 3690 flat bottom, 96-well half-area plates), MRS proteins (His-MRS, MRS full) and other ARS proteins (DX2 tag free, 34S-DX2, 34S-AIMP2, His-CRS, His-AIMP1, His-GRS, His-WRS, His-KRS) were each coated at a concentration of 1 μg/ml. 8A12 antibody was added at a concentration of 500 ng/ml to the 96-well plate coated with coated with each of the ARS proteins, followed by incubation for 1 hour. Thereafter, HRP-conjugated anti-mouse IgG secondary antibody was added, followed by incubation for 1 hour, and the absorbance at 450 nm was measured by ELISA. As a substrate, 3,3′,5,5′-tetramethylbenzidine (TMB) was used.

[2] = molecular target: T2, His-GRS (UniProt P41250 55-739); test: ELISA, coated His-GRS, absorbance at 450 nm
T2 construct: not shown: His tag
T2 sequence (looked up): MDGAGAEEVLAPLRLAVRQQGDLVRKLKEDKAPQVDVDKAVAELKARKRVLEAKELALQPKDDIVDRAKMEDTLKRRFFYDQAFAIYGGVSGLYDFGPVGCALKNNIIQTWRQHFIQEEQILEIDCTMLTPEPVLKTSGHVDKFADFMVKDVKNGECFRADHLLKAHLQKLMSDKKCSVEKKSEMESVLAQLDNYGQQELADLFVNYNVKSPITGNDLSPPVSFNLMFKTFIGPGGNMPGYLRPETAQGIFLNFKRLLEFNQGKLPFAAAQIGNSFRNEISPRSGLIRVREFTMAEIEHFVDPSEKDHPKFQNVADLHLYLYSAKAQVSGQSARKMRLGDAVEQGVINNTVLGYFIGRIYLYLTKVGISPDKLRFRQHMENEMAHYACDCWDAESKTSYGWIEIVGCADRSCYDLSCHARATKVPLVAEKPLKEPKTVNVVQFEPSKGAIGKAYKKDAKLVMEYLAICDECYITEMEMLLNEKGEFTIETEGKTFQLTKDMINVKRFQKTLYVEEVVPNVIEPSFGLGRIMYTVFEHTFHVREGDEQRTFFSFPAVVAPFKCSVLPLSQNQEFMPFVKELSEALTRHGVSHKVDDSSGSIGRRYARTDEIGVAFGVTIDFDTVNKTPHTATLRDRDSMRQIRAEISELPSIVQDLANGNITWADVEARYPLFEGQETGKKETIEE
Experimental: as §1

[3] = molecular target: T3, His-KRS (UniProt Q15046 1-597); test: ELISA, coated His-KRS, absorbance at 450 nm
T3 construct: not shown: His tag
T3 sequence (Q15046 whole entry): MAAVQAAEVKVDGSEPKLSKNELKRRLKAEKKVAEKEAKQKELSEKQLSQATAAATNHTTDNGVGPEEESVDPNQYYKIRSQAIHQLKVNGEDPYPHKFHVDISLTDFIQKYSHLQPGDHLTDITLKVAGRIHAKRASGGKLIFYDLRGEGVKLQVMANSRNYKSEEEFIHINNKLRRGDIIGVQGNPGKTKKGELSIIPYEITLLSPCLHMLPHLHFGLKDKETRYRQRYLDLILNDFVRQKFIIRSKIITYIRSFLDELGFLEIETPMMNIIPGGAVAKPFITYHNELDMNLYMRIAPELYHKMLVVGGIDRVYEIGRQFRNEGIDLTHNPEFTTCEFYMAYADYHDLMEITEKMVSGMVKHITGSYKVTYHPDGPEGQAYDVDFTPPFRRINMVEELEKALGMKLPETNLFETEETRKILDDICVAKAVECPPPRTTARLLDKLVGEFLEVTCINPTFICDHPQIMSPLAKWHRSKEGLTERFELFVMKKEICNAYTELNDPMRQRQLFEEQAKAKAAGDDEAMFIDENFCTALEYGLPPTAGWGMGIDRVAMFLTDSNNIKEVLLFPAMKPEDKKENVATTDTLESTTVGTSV
Experimental: as §1

[4] = molecular target: T4, His-WRS (UniProt P23381 1-471, limits assumed); test: ELISA, coated His-WRS, absorbance at 450 nm
T4 construct: not shown: His tag
T4 sequence (looked up): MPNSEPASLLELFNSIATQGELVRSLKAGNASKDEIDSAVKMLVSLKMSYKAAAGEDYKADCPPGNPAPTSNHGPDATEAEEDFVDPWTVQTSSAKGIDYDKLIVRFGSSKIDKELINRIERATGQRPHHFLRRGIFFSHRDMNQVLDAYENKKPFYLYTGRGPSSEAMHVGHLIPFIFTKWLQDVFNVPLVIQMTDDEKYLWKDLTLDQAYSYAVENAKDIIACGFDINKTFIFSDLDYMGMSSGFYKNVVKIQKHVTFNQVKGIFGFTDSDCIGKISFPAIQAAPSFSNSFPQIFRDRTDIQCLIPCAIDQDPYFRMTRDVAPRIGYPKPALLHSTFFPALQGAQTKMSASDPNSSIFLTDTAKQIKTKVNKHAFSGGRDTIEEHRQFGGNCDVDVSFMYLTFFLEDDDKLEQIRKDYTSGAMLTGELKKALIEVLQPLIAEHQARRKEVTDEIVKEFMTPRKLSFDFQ
Experimental: as §1

[5] = molecular target: T5, MRS fragment peptide of aa 851-880 (human); test: ELISA, peptide coated at 300 ng/well, antibody at 10 nM
T5 peptide: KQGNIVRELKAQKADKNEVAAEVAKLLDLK
Experimental: The 8A12 antibody as a primary antibody was diluted to 10 nM (1× PBST-Tween 0.05%), and HRP-conjugated Goat anti-mouse IgG (Thermo) as a secondary antibody was diluted at 1:10000 (1×PBST-Tween0.05%), and the absorbance was measured at 450 nm.

[6] = molecular target: T6, 34S-AIMP2 (UniProt Q13155 1-320); test: ELISA, coated 34S-AIMP2, absorbance at 450 nm
T6 construct: The meaning of 34S is unknown
T6 sequence (looked up): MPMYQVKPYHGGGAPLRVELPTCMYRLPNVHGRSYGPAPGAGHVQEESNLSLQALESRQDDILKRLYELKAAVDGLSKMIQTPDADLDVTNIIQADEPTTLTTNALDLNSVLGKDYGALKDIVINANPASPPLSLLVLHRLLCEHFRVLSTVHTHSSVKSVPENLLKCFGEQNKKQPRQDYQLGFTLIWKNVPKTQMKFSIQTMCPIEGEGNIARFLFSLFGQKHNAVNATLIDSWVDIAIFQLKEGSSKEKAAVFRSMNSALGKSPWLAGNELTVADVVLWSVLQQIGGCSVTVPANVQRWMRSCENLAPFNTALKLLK
Experimental: as §1

[7] = molecular target: T7, His-AIMP1 (UniProt Q12904 1-312, limits assumed); test: ELISA, coated His-AIMP1, absorbance at 450 nm
T7 construct: not shown: His tag
T7 sequence (looked up): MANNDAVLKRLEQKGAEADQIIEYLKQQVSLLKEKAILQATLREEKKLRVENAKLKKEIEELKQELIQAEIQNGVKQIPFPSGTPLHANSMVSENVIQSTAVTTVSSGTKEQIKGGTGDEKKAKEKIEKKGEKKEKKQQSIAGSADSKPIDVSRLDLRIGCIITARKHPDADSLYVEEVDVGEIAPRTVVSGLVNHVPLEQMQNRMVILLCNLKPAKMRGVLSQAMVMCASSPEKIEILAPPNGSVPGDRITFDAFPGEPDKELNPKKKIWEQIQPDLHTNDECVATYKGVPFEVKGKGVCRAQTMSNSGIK
Experimental: as §1

[8] = molecular target: T8, aminoacyl-tRNA synthetase complex-interacting multifunctional protein 3 (AIMP3) (Homo sapiens (Human), UniProt O43324 1-174, limits assumed); test: SPR, AIMP3 protein on a CM5 chip, 8A12 antibody as analyte at 0.20 to 200 nM
T8 construct: The construct of the AIMP3-alone protein is not described; also called AIMP3 protein
T8 sequence: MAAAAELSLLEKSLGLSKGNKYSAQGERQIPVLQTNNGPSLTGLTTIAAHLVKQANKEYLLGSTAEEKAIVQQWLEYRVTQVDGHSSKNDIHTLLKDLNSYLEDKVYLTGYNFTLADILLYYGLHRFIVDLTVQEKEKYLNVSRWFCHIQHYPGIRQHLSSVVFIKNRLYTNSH
Experimental: (§2) To investigate MRS-specific affinity of the 8A12 antibody, a surface plasmon resonance (SPR) test was performed using MRS-AIMP3 co-purified protein (hereinafter, MRS+AIMP3 protein) and AIMP3 protein. MRS+AIMP3 or AIMP3 protein was coated on a CM5 chip and the 8A12 antibody was allowed to flow down, thereby measuring the degree of binding response of the protein. An analyte sample or buffer was injected at a flow rate of 30 μl/min for 8 minutes, and washed for 20 minutes.

[9] = molecular target: T9, MRS-AIMP3 co-purified protein (human, UniProt P56192 1-900; O43324 1-174, limits assumed); test: SPR, MRS+AIMP3 protein on a CM5 chip, 8A12 antibody as analyte at 0.39 to 200 nM
T9 construct: Complex of MRS and AIMP3, co-expressed in E. coli BL21DE3 and co-purified; also called MRS+AIMP3 protein
T9 sequence 1: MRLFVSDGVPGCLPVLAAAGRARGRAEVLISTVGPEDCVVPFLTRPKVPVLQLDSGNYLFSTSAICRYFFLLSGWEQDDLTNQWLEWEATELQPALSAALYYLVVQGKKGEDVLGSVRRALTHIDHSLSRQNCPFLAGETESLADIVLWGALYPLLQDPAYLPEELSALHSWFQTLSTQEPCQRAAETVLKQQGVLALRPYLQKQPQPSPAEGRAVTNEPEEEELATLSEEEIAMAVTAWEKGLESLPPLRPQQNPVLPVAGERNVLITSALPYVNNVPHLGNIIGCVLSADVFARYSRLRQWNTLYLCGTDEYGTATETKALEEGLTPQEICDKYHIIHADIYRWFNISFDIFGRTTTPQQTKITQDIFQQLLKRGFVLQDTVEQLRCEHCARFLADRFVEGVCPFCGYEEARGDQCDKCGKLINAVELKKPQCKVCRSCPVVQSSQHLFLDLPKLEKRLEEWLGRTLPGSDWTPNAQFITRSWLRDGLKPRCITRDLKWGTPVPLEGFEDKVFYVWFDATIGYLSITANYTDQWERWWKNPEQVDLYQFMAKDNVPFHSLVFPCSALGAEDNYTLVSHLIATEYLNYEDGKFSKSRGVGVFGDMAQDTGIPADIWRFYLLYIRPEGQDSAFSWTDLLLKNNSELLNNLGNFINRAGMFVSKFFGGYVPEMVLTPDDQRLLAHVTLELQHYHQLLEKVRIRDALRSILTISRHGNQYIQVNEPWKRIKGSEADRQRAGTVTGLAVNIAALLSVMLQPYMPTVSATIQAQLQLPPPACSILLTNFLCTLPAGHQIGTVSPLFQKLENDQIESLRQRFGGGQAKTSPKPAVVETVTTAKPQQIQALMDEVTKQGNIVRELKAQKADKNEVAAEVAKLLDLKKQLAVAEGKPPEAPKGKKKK
T9 sequence 2: T8 sequence
Experimental: as §2

[10] = molecular target: T9, MRS-AIMP3 co-purified protein; test: SPR, MRS+AIMP3 protein coated on CM5 chip, antibody as analyte; MRS+AIMP3 co-purified protein on the CM5 chip, 8A12 antibody as analyte
Experimental: as §2

B1: 8A12 antibody (whole 8A12 IgG antibody) (antibody, V domains shown)
VH: DVKLQESGPGLVKPSQSLSLTCTVTGYSITSEYAWTWIRQFPGNKLEWMGYINYNGNTNLNPSLKSRISIIRDTSKNQFFLQLNSVTTEDTATYYCARSLWPRGWFAYWGQGTLVTVSA
VL: DIQMTQSPSSMYASLGERVTITCKASQDINSYLSWFQQKPGKSPKTLMYRANRLVDGVPSRFSGSGSGQDYSLTISSLEYEDMGIYYCLQYDEFPRTFGGGTKLEIKA
notes: Mouse monoclonal antibody from hybridoma 8A12; It was also made recombinantly in 293F cells with mouse IgG2a heavy and mouse kappa light chain vectors; also called MRS antibody; 8A12 clone expression antibody
- binding result [1]: no binding
- binding result [2]: no binding
- binding result [3]: no binding
- binding result [4]: no binding
- binding result [5]: binds
- binding result [6]: no binding
- binding result [7]: no binding
- binding result [8]: no binding (tested: 200 nM)
- koff [9]: 0.000213 s⁻¹
- kon [9]: 137000 M⁻¹ s⁻¹
- Kd [10]: 1.56 nM
